In patent US11548942B2, “Methods of treating a wasting syndrome, increasing growth hormone levels, and increasing GHSR activity with a LEAP2 antibody” (NGM Biopharmaceuticals, Inc., priority 2017, dated 2023):

How the values were obtained:
food intake = assay: Food intake in mice; format: in vivo
Description: Mice were housed in individual cages and food intake was measured at 0.5, 1, and 2 hours.
Mice were subcutaneously injected with 0.15 μmol/kg or 3 μmol/kg LEAP2.

[1] = Growth hormone infusion during chronic calorie restriction in LEAP2-expressing mice; format: in vivo; conditions: growth hormone pumps 0.5 μg/hr s.c.
Description: As described above, two weeks before initiation of calorie restriction, 2-3 month-old male mice were administered AAV-LEAP2 or AAV-GFP by tail vein injection. Diet treatment groups and measurements were the same as above. For growth hormone infusion, Alzet® osmotic mini-pumps filled with recombinant rat growth hormone (GroPep Bioreagents) or vehicle were implanted subcutaneously in the interscapular region. Growth hormone concentration in the pumps was 2 mg/ml and the growth hormone was delivered at a rate of 0.25 μl/hr (0.5 μg/hr).
FIG. 8A illustrates the experimental design for growth hormone infusion during chronic calorie restriction. The delivery efficiency of growth hormone was confirmed in a separate group of naïve mice kept in ad libitum conditions over 2 weeks. […] Osmotic pumps were implanted 3 days before initiation of calorie restriction. […] In LEAP2-expressing mice implanted with growth hormone pumps, 60% were able to maintain stable levels of blood glucose and survived to the end of the experiment. […] FIG. 8C presents a Kaplan-Meier survival curve of the mice from this experiment.

endogenous LEAP2 = target: T1, endogenous LEAP2 (Mus musculus, UniProt Q91V13); assay: Growth hormone release after fasting and anti-LEAP2 antibody treatment; format: in vivo, mice; conditions: 10 mg/kg i.p. after 24 hour fasting
T1 construct: The mature form of LEAP2 found in circulation is a 40 amino acid cationic bicyclic peptide; from tissue; host or cells: live fasted mice; circulating endogenous LEAP2
T1 sequence (Q91V13 37-76): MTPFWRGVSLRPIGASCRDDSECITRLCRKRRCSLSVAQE
Description: FIG. 10C illustrates the experimental design for evaluating the impact of anti-LEAP2 antibodies on growth hormone release. Following a 24 hour fasting period, a baseline blood sample was taken, and anti-LEAP2 antibodies (10 mg/kg) were administered by intraperitoneal injection. Growth hormone levels were determined at 5, 10, 30, 60, 90, and 120 minutes post-injection.

CCCCCCCC(=O)OC[C@H](NC(=O)[C@H](CO)NC(=O)CN)C(=O)N[C@@H](Cc1ccccc1)C(=O)N[C@@H](CC(C)C)C(=O)N[C@@H](CO)C(=O)N1CCC[C@H]1C(=O)N[C@@H](CCC(=O)O)C(=O)N[C@@H](Cc1c[nH]cn1)C(=O)N[C@@H](CCC(N)=O)C(=O)N[C@@H](CCCNC(=N)N)C(=O)N[C@H](C(=O)N[C@@H](CCC(N)=O)C(=O)N[C@@H](CCC(N)=O)C(=O)N[C@@H](CCCNC(=N)N)C(=O)N[C@@H](CCCCN)C(=O)N[C@@H](CCC(=O)O)C(=O)N[C@@H](CO)C(=O)N[C@@H](CCCCN)C(=O)N[C@@H](CCCCN)C(=O)N1CCC[C@H]1C(=O)N1CCC[C@H]1C(=O)N[C@@H](C)C(=O)N[C@@H](CCCCN)C(=O)N[C@@H](CC(C)C)C(=O)N[C@@H](CCC(N)=O)C(=O)N1CCC[C@H]1C(=O)N[C@@H](CCCNC(=N)N)C(=O)O)C(C)C [ghrelin]
food intake (food intake; ghrelin 0.03 μmol/kg s.c.): only slightly increased
food intake (food intake; ghrelin 0.15 μmol/kg s.c., 1 and 2 hour time points): significantly promote food intake

B1: growth hormone: recombinant rat growth hormone (GroPep Bioreagents) delivered by Alzet osmotic mini-pumps (protein, UniProt P01244 27-216, looked up)
Somatotropin: FPAMPLSSLFANAVLRAQHLHQLAADTYKEFERAYIPEGQRYSIQNAQAAFCFSETIPAPTGKEEAQQRTDMELLRFSLLLIQSWLGPVQFLSRIFTNSLMFGTSDRVYEKLKDLEEGIQALMQELEDGSPRIGQILKQTYDKFDANMRSDDALLKNYGLLSCFKKDLHKAETYLRVMKCRRFAESSCAF
LEAP2-expressing mice able to maintain stable blood glucose and surviving to the end of the experiment [1]: 60%

B2: M18: mouse hybridoma anti-LEAP2 monoclonal antibody, VH SEQ ID NO:9, VL SEQ ID NO:10 (antibody, V domains shown)
VH: EIQLQQSGPELMKPGASVKISCKASGYSFTNYYIHWVKQSHGKSLEWIGYIDPFNGGTNYNQKFKGKATLTVDKSSSTAYMHLSSLTFEDSAVYYCARRGYYYGFTYWGQGTLVTVSA
VL: DIVLTQSPASLAVSLGQRATISCKASQSVDYDGDSYMNWYQQKPGQPPKLLIYTASNLESGIPARFSGSGSGTDFTLNIHPVEEEDAATYYCQQSNEDPYTFGGGTKLEIK
total amount of growth hormone released (AUC) (endogenous LEAP2): increased the total amount of growth hormone released
peak of growth hormone secretion (endogenous LEAP2; versus control antibody): increased the peak of growth hormone secretion
